According to patent publication US20200165308A1 (UNIVERSITY OF MANITOBA, published 2020):

Legend:
[1] = molecular target: T1, extracellular domains of UNC5h2 (CAD32251, aa: 25-374) (Mus musculus, UniProt Q8K1S3 25-374); assay: solid-phase binding
T1 construct: also called UNC5h2 full-length ectodomain; not shown: C-terminal double Strep-tag II

[2] = molecular target: T2, Netrin-1 (NET1) from Mus musculus lacking the C-terminal domain (NP_032770, aa: 24-457) (Mus musculus, UniProt O09118 24-457); assay: solid-phase binding, NEO1 immobilized
[3] = molecular target: T2, Netrin-1 (NET1) from Mus musculus …; assay: solid-phase binding

binding result [3] | Binder | further results
– | NET1 with the eight loop a/b residues 348RRCRFNME355 replaced by the equivalent residues from NET4 (339DTCHFDVN346) (ligand, C350 and F352 are the same in both; also called NET1/NET4 loop a/b swap) not shown | fold drop in affinity against wild type NET1 [1]: 50 fold
– | full-length ectodomain of NEO1 (AAH54540, aa: 41-1107) (receptor, also called neogenin; NEO1 full-length ectodomain; not shown: C-terminal double Strep-tag II) GAAATKSGSPPQSAGASVRTFTPFYFLVEPVDTLSVRGSSVILNCSAYSEPSPNIEWKKDGTFLNLESDDRRQLLPDGSLFISNVVHSKHNKPDEGFYQCVATVDNLGTIVSRTAKLTVAGLPRFTSQPEPSSVYVGNSAILNCEVNADLVPFVRWEQNRQPLLLDDRIVKLPSGTLVISNATEGDGGLYRCIVESGGPPKFSDEAELKVLQDPEEIVDLVFLMRPSSMMKVTGQSAVLPCVVSGLPAPVVRWMKNEEVLDTESSGRLVLLAGGCLEISDVTEDDAGTYFCIADNGNKTVEAQAELTVQVPPGFLKQPANIYAHESMDIVFECEVTGKPTPTVKWVKNGDVVIPSDYFKIVKEHNLQVLGLVKSDEGFYQCIAENDVGNAQAGAQLIILEHDVAIPTLPPTSLTSATTDHLAPATTGPLPSAPRDVVASLVSTRFIKLTWRTPASDPHGDNLTYSVFYTKEGVARERVENTSQPGEMQVTIQNLMPATVYIFKVMAQNKHGSGESSAPLRVETQPEVQLPGPAPNIRAYATSPTSITVTWETPLSGNGEIQNYKLYYMEKGTDKEQDIDVSSHSYTINGLKKYTEYSFRVVAYNKHGPGVSTQDVAVRTLSDVPSAAPQNLSLEVRNSKSIVIHWQPPSSTTQNGQITGYKIRYRKASRKSDVTETLVTGTQLSQLIEGLDRGTEYNFRVAALTVNGTGPATDWLSAETFESDLDETRVPEVPSSLHVRPLVTSIVVSWTPPENQNIVVRGYAIGYGIGSPHAQTIKVDYKQRYYTIENLDPSSHYVITLKAFNNVGEGIPLYESAVTRPHTVPDPTPMMPPVGVQASILSHDTIRITWADNSLPKHQKITDSRYYTVRWKTNIPANTKYKNANATTLSYLVTGLKPNTLYEFSVMVTKGRRSSTWSMTAHGATFELVPTSPPKDVTVVSKEGKPRTIIVNWQPPSEANGKITGYIIYYSTDVNAEIHDWVIEPVVGNRLTHQIQELTLDTPYYFKIQARNSKGMGPMSEAVQFRTPKALGSAGKGSRLPDLGSDYKPPMSGSNSPHGSPTSPLDSN | binding result [2]: binds
no binding | UNC5h2 IgG2 (CAD32251, aa: 154-245) (receptor, also called Ig2; Ig2 domain of UNC5h2; not shown: C-terminal double Strep-tag II) not shown | –
binds | UNC5h2 IgG1 (CAD32251, aa: 52-153) (receptor, also called Ig1; Ig1 domain of UNC5h2; not shown: C-terminal double Strep-tag II) not shown | –
